IntAct's records for PubMed 18388957

B1: Inhibitor of growth protein 1 (Homo sapiens), Q9UK53-2 (parent)
chain: MLSPANGEQLHLVNYVEDYLDSIESLPFDLQRNVSLMREIDAKYQEILKELDECYERFSRETDGAQKRRMLHCVQRALIRSQELGDEKIQIVSQMVELVENRTRQVDSHVELFEAQQELGDTAGNSGKAGADRPKGEAAAQADKPNSKRSRRQRNNENRENASSNHDHDDGASGTPKEKKAKTSKKKKRSKAKAEREASPADLPIDPNEPTYCLCNQVSYGEMIGCDNDECPIEWFHFSCVGLNHKPKGKWYCPKCRGENEKTMDKALEKSKKERAYNR

Variants of: B1
Details: with nqo1_human NQO1, P15559

| effect of a mutation on the interaction | Variant |
| --- | --- |
| disrupting interaction | MLSPANGEQLHLVNYVEDYLDSIESLPFDLQRNVSLMREIDAKYQEILKELDECYERFSRETDGAQKRRMLHCVQRALIRSQELGDEKIQIVSQMVELVENRTRQVDSHVELFEAQQELGDTAGNAGKAGADRPKGEAAAQADKPNSKRSRRQRNNENRENASSNHDHDDGASGTPKEKKAKTSKKKKRSKAKAEREASPADLPIDPNEPTYCLCNQVSYGEMIGCDNDECPIEWFHFSCVGLNHKPKGKWYCPKCRGENEKTMDKALEKSKKERAYNR [S126A] |
